Data on one molecule can be found in patent US20260184748A1 (University of Pennsylvania, published 2026).

Experiment in all cases: cell-based or functional assay
Assay [1] has as its target LTB4R (UniProt Q15722 1-352).
Assay [2] deals with P2RY1 (UniProt P47900 1-373).
For assay [3], the target named is T1, ADRA2B (UniProt P18089 1-450).
T1 sequence (looked up): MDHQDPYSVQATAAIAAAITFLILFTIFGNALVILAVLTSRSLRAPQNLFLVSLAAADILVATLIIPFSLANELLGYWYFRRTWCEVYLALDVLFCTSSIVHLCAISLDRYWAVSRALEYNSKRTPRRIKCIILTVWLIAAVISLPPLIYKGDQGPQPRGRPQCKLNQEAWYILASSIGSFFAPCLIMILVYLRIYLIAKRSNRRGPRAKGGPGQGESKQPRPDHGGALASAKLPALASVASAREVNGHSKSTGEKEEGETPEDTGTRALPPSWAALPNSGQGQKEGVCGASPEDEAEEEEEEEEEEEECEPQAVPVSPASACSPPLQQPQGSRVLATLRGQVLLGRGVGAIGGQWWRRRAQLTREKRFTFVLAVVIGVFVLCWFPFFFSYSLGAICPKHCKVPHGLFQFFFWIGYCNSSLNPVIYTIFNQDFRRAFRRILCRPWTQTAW

Assay [4] has as its target T2, BDKRB2 (UniProt P30411 1-391, limits assumed).
T2 sequence (looked up): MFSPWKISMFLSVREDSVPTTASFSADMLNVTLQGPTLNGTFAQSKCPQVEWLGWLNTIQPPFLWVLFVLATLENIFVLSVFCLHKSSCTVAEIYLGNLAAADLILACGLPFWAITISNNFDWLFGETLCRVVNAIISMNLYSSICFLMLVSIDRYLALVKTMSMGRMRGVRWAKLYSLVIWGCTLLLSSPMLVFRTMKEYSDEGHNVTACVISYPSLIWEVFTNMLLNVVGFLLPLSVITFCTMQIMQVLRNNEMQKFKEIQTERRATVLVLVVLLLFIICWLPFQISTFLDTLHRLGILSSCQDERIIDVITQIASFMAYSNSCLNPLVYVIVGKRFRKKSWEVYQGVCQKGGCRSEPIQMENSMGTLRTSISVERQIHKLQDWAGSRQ

Assay [5] concerns the target T3, CRTH2 (UniProt Q9Y5Y4 1-395).
T3 sequence (looked up): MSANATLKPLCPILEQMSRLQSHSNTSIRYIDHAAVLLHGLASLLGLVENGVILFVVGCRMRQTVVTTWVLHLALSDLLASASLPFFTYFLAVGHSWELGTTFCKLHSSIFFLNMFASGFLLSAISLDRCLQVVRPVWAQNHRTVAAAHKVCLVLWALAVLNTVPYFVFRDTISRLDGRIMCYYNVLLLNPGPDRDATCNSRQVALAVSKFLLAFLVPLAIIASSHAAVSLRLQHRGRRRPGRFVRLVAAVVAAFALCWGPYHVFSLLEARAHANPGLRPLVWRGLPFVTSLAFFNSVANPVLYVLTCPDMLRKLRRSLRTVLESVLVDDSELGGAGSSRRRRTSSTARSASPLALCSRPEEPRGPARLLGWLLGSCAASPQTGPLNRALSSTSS

In assay [6] the target is CCR8 (UniProt P51685 1-355).
The target of assay [7] is T4, CALCR-RAMP3 (UniProt P30988 25-474; O60896 24-148, limits assumed).
T4 sequence (looked up) 1: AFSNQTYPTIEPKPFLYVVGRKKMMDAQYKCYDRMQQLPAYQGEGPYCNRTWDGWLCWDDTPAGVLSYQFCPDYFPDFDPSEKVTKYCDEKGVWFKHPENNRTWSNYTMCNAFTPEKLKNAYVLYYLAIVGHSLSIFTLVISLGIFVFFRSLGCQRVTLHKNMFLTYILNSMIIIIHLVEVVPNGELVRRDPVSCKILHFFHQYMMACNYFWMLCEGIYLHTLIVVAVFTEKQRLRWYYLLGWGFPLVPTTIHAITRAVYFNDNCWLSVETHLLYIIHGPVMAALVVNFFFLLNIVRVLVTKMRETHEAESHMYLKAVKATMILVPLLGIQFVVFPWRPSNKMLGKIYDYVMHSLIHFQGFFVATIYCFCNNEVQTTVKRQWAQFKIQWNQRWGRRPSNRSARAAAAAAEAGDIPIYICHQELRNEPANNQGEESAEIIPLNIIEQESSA
T4 sequence (looked up) 2: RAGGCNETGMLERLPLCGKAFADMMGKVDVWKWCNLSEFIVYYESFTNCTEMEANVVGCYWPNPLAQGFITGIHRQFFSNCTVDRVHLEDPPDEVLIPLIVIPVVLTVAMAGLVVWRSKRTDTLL

Assay [8] concerns the target MCHR2 (UniProt Q969V1 1-340).
For assay [9], the target named is MCHR1 (UniProt Q99705 1-353).
Sequence of MCHR1 (Q99705 whole entry): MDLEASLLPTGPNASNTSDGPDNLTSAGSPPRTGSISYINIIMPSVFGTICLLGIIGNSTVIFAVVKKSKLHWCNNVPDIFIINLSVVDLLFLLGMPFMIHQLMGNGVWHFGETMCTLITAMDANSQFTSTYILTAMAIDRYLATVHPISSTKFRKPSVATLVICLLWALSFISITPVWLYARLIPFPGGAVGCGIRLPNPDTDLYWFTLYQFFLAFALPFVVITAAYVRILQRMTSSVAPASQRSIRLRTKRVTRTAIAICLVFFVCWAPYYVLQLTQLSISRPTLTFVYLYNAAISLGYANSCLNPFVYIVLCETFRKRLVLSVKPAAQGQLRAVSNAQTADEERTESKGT
Assay [10] concerns the target AVPR2 (UniProt P30518 1-371).
Assay [11] concerns the target NTSR1 (UniProt P30989 1-418).
Assay [12] addresses CALCRL-RAMP2 (UniProt Q16602 23-461; O60895 43-175).
The target of assay [13] is T5, TRHR (UniProt P34981 1-398).
T5 sequence (looked up): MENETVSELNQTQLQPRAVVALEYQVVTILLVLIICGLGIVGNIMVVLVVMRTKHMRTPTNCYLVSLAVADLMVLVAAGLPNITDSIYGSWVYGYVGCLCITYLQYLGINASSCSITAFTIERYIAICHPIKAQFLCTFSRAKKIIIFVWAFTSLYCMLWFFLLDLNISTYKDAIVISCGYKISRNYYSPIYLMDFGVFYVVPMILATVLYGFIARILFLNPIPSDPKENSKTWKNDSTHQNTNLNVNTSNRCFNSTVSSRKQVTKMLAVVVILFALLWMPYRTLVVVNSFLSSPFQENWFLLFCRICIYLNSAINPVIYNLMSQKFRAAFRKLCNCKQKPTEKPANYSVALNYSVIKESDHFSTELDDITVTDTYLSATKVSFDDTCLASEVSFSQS

Assay [14] addresses MLNR (UniProt O43193 1-412).

Where no end group is shown, it is not given here.

Sequence of NTSR1 (P30989 whole entry): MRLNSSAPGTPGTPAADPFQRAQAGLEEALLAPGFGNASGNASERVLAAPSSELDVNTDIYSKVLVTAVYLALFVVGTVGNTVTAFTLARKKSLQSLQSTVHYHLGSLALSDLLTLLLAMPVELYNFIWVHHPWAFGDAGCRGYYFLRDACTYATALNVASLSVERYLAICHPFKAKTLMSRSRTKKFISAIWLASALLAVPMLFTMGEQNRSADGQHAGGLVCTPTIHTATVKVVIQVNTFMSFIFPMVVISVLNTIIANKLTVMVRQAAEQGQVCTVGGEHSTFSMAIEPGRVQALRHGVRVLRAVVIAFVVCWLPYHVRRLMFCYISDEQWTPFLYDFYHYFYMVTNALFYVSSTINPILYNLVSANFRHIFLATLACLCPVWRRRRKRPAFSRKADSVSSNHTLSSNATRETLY
Sequence of MCHR2 (Q969V1 whole entry): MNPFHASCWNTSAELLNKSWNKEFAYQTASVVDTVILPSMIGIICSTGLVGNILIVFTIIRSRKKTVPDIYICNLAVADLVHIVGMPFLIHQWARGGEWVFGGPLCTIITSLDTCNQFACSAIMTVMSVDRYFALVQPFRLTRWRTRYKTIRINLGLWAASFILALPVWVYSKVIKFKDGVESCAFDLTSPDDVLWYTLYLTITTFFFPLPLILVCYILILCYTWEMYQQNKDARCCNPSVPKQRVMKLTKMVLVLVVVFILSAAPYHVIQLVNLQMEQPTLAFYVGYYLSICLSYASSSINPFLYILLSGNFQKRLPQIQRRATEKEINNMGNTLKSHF
Sequence of CALCRL-RAMP2 (Q16602 23-461 limits assumed, chain 1 of 2): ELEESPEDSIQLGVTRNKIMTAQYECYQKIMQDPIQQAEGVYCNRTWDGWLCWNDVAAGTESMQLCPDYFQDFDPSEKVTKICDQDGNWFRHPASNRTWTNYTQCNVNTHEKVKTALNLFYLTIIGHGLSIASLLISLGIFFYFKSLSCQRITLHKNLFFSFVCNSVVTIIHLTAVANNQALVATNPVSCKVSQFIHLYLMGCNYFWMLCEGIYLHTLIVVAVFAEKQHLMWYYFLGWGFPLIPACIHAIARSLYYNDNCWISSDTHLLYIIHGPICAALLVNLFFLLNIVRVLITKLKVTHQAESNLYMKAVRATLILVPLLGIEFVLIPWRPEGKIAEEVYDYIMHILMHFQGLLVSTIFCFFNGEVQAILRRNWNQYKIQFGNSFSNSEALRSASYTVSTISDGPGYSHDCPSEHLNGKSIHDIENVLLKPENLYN
Sequence of CALCRL-RAMP2 (O60895 43-175 limits assumed, chain 2 of 2): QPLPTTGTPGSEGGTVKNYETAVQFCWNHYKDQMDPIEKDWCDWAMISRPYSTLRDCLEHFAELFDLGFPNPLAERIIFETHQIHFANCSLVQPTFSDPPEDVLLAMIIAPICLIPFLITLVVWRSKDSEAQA
Sequence of MLNR (O43193 whole entry): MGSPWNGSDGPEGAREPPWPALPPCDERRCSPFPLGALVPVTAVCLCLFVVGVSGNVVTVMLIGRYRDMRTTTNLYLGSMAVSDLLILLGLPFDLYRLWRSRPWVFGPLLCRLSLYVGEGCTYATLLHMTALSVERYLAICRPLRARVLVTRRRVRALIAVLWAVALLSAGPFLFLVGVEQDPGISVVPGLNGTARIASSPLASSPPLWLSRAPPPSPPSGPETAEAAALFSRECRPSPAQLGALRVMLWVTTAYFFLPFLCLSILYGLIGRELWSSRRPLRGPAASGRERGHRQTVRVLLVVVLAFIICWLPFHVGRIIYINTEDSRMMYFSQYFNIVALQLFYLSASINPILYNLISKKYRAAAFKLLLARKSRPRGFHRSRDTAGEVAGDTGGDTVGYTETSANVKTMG
Sequence of P2RY1 (P47900 whole entry): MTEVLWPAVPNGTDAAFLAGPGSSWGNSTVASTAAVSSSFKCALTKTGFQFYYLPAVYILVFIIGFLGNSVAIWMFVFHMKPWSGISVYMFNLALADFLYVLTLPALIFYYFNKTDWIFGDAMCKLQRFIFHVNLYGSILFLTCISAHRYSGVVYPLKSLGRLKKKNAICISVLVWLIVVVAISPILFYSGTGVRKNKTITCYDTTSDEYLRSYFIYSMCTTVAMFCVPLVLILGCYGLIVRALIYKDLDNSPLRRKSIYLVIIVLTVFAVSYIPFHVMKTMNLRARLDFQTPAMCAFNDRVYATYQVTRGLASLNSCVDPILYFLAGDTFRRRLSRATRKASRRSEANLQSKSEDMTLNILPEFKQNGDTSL
Sequence of LTB4R (Q15722 whole entry): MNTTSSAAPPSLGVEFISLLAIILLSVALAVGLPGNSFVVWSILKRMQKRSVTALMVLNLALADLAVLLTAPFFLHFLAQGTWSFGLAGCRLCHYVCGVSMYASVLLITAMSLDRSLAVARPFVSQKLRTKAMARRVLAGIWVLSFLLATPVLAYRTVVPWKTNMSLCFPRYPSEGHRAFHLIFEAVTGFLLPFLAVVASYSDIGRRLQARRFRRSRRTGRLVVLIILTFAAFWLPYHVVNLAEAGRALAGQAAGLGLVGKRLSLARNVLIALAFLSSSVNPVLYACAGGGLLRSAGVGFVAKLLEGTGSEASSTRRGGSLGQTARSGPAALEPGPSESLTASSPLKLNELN

For the molecule QATVGDVNTDRPGLLDLK (also: synthesised on Rink amide resin, C-terminal amide not given here outright) [octadecaneuropeptide (ODN)], the “% Activity, arrestin, antagonist mode, 2.5 uM” value (shortened to “% Activity, arrestin”) was 10.3% in assay [1]; -6.4% in [2]; -36.8% in assay [3]; -1.7% in assay [4]; 0.6% in [5]; -17% in [6]. For the same molecule, the “% Activity, arrestin” value in assay [7] was -0.1%; in assay [8], -10.5%; in assay [9], 5.1%; in assay [10], -11.2%; in assay [11], -21.4%; in [12], -11.6%. Also, the “% Activity, arrestin” value in [13] is -6.6%; in assay [14], -5.5%.
